In experiment [1] the target is SOAR, purified wild-type protein (UniProt Q13586). Description: SEC; purified SOAR and SOAR-F394H, ~0.5 mg/ml, Superdex-200 16/60, 200 mM NaCl, 20 mM Mes-NaOH pH 6.5, 2.5 ml/min; calibrated with protein standards; monomers to dimer.
For experiment [2] the target is unchanged. Description: cross-linking; purified proteins dialysed against PBS, 0.5 mg/ml, disuccinimidyl suberate 0, 0.1 and 1 mM, 30 min, room temperature; SDS-PAGE, Coomassie blue; monomers to dimer.
The target of experiment [3] is SOAR-F394H, purified protein (UniProt Q13586). Description: SEC; purified SOAR and SOAR-F394H, ~0.5 mg/ml, Superdex-200 16/60, 200 mM NaCl, 20 mM Mes-NaOH pH 6.5, 2.5 ml/min; calibrated with protein standards; monomers to dimer. A general note: Size exclusion chromatography separates by hydrodynamic size, large species first.
Experiment [4] shares this target. Description: cross-linking; purified proteins dialysed against PBS, 0.5 mg/ml, disuccinimidyl suberate 0, 0.1 and 1 mM, 30 min, room temperature; SDS-PAGE, Coomassie blue; monomers to dimer.

As usually defined, the stoichiometry N is the number of molecules, sites or subunits per partner or assembly. Consider “SOAR, purified wild-type protein (from UniProt Q13586 344-442) (domain or fragment)”, for which the stoichiometry N in experiment [1] and in experiment [2] was 2 in each case.
Turning to “SOAR-F394H, purified protein (from UniProt Q13586 344-442) (domain or fragment)”, the stoichiometry N in experiment [3] and in experiment [4] was 2 in each case.
